Results from article PMC4104028 (2014).

B1: GFP-WIPI2b [not stated] / FLAG-Atg16L1 full-length (FL) [mouse] (parent complex)
chain 1: MNLASQSGEAGAGQLLFANFNQDNTSLAVGSKSGYKFFSLSSVDKLEQIYECTDTEDVCIVERLFSSSLVAIVSLKAPRKLKVCHFKKGTEICNYSYSNTILAVKLNRQRLIVCLEESLYIHNIRDMKVLHTIRETPPNPAGLCALSINNDNCYLAYPGSATIGEVQVFDTINLRAANMIPAHDSPLAALAFDASGTKLATASEKGTVIRVFSIPEGQKLFEFRRGVKRCVSICSLAFSMDGMFLSASSNTETVHIFKLETVKEKPPEEPTTWTGYFGKVLMASTSYLPSQVTEMFNQGRAFATVRLPFCGHKNICSLATIQKIPRLLVGAADGYLYMYNLDPQEGGECALMKQHRLDGSLETTNEILDSASHDCPLVTQTYGAAAGKGTYVPSSPTRLAYTDDLGAVGGACLEDEASALRLDEDSEHPPMILRTD
chain 2: MSSGLRAADFPRWKRHIAEELRRRDRLQRQAFEEIILQYTKLLEKSDLHSVLTQKLQAEKHDMPNRHEISPGHDGAWNDSQLQEMAQLRIKHQEELTELHKKRGELAQLVIDLNNQMQQKDKEIQMNEAKISEYLQTISDLETNCLDLRTKLQDLEVANQTLKDEYDALQITFTALEEKLRKTTEENQELVTRWMAEKAQEANRLNAENEKDSRRRQARLQKELAEAAKEPLPVEQDDDIEVIVDETSDHTEETSPVRAVSRAATKRLSQPAGGLLDSITNIFGLSESPLLGHHSSDAARRRSVSSIPVPQDIMDTHPASGKDVRVPTTASYVFDAHDGEVNAVQFSPGSRLLATGGMDRRVKLWEAFGDKCEFKGSLSGSNAGITSIEFDSAGAYLLAASNDFASRIWTVDDYRLRHTLTGHSGKVLSAKFLLDNARIVSGSHDRTLKLWDLRSKVCIKTVFAGSSCNDIVCTEQCVMSGHFDKKIRFWDIRSESVVREMELLGKITALDLNPERTELLSCSRDDLLKVIDLRTNAVKQTFSAPGFKCGSDWTRVVFSPDGSYVAAGSAEGSLYVWSVLTGKVEKVLSKQHSSSINAVAWAPSGLHVVSVDKGSRAVLWAQP
B2: FLAG-Atg16L1 full-length (FL) [mouse] / GFP-WIPI2b [not stated] (parent complex)
chain 1: B1 chain 2
chain 2: B1 chain 1
B3: GFP-WIPI2b [not stated] / FLAG-Atg16L1 full-length (FL) [mouse] (parent complex)
chain 1: B1 chain 1
chain 2: B1 chain 2
B4: FLAG-Atg16L1 full-length (FL) [mouse] / endogenous FIP200 (HEK293A) [human (endogenous in HEK293A)] (parent complex)
chain 1: B1 chain 2
chain 2: MKLYVFLVNTGTTLTFDTELTVQTVADLKHAIQSKYKIAIQHQVLVVNGGECMAADRRVCTYSAGTDTNPIFLFNKEMILCDRPPAIPKTTFSTENDMEIKVEESLMMPAVFHTVASRTQLALEMYEVAKKLCSFCEGLVHDEHLQHQGWAAIMANLEDCSNSYQKLLFKFESIYSNYLQSIEDIKLKLTHLGTAVSVMAKIPLLECLTRHSYRECLGRLDSLPEHEDSEKAEMKRSTELVLSPDMPRTTNESLLTSFPKSVEHVSPDTADAESGKEIRESCQSTVHQQDETTIDTKDGDLPFFNVSLLDWINVQDRPNDVESLVRKCFDSMSRLDPRIIRPFIAECRQTIAKLDNQNMKAIKGLEDRLYALDQMIASCGRLVNEQKELAQGFLANQKRAENLKDASVLPDLCLSHANQLMIMLQNHRKLLDIKQKCTTAKQELANNLHVRLKWCCFVMLHADQDGEKLQALLRLVIELLERVKIVEALSTVPQMYCLAVVEVVRRKMFIKHYREWAGALVKDGKRLYEAEKSKRESFGKLFRKSFLRNRLFRGLDSWPPSFCTQKPRKFDCELPDISLKDLQFLQSFCPSEVQPFLRVPLLCDFEPLHQHVLALHNLVKAAQSLDEMSQTITDLLSEQKASVSQTSPQSASSPRMESTAGITTTTSPRTPPPLTVQDPLCPAVCPLEELSPDSIDAHTFDFETIPHPNIEQTIHQVSLDLDSLAESPESDFMSAVNEFVIEENLSSPNPISDPQSPEMMVESLYSSVINAIDSRRMQDTNVCGKEDFGDHTSLNVQLERCRVVAQDSHFSIQTIKEDLCHFRTFVQKEQCDFSNSLKCTAVEIRNIIEKVKCSLEITLKEKHQKELLSLKNEYEGKLDGLIKETEENENKIKKLKGELVCLEEVLQNKDNEFALVKHEKEAVICLQNEKDQKLLEMENIMHSQNCEIKELKQSREIVLEDLKKLHVENDEKLQLLRAELQSLEQSHLKELEDTLQVRHIQEFEKVMTDHRVSLEELKKENQQIINQIQESHAEIIQEKEKQLQELKLKVSDLSDTRCKLEVELALKEAETDEIKILLEESRAQQKETLKSLLEQETENLRTEISKLNQKIQDNNENYQVGLAELRTLMTIEKDQCISELISRHEEESNILKAELNKVTSLHNQAFEIEKNLKEQIIELQSKLDSELSALERQKDEKITQQEEKYEAIIQNLEKDRQKLVSSQEQDREQLIQKLNCEKDEAIQTALKEFKLEREVVEKELLEKVKHLENQIAKSPAIDSTRGDSSSLVAELQEKLQEEKAKFLEQLEEQEKRKNEEMQNVRTSLIAEQQTNFNTVLTREKMRKENIINDLSDKLKSTMQQQERDKDLIESLSEDRARLLEEKKKLEEEVSKLRSSSFVPSPYVATAPELYGACAPELPGESDRSAVETADEGRVDSAMETSMMSVQENIHMLSEEKQRIMLLERTLQLKEEENKRLNQRLMSQSMSSVSSRHSEKIAIRDFQVGDLVLIILDERHDNYVLFTVSPTLYFLHSESLPALDLKPGEGASGASRRPWVLGKVMEKEYCQAKKAQNRFKVPLGTKFYRVKAVSWNKKV

Variants of: B1
Assay: GFP-Trap co-immunoprecipitation from mixed lysates, immunoblot quantification; parent: 2.5; read off a plot

| Variant | response |
| --- | --- |
| chain 2 E226R, chain 2 E230R | ~0.02 |
| chain 2 E226R | ~0.33 |
| chain 2 E230R | ~0.62 |

Variants of: B2
Assay: GFP-Trap co-immunoprecipitation from mixed lysates, immunoblot quantification; parent: 1; read off a plot

| Variant | ratio to parent |
| --- | --- |
| chain 1 D237R | ~1.7 |
| chain 1 E208R | ~0.67 |
| chain 1 D238R | ~1.3 |
| chain 1 E241R | ~1.1 |
| chain 1 E226R | ~0.02 |
| chain 1 E235R | ~1.2 |
| chain 1 D239R | ~0.8 |
| chain 1 E230R | ~0.02 |
| chain 1 D212R | ~0.63 |

Variants of: B3
Assay: GFP-Trap co-immunoprecipitation from mixed lysates, immunoblot quantification; parent: 2.5; read off a plot

| Variant | response |
| --- | --- |
| chain 1 R108E, chain 1 R125E | ~0.03 |
| chain 1 R108E | ~0.04 |
| chain 1 R125E | ~1.6 |

Variants of: B4
Assay: FLAG immunoprecipitation, immunoblot quantification; parent: 1; read off a plot

| Variant | ratio to parent |
| --- | --- |
| chain 1 D238R | ~0.42 |
| chain 1 D237R | ~0.45 |
| chain 1 D212R | ~1.2 |
| chain 1 E208R | ~1.3 |
| chain 1 D239R | ~0.3 |
| chain 1 E241R | ~0.25 |
| chain 1 E230R | ~2.9 |
| chain 1 E226R | ~2.1 |
| chain 1 E235R | ~0.7 |
